From patent publication CN113388031A (SHANGHAI INSTITUTE FOR ADVANCED STUDY OF ZHEJIANG UNIV, dated 2021)

Experiments:
[1] = biological target: SARS-CoV-2突变株D614G S蛋白 (spike protein of the D614G mutant strain, on live virus) (SARS-CoV-2 D614G mutant strain, UniProt P0DTC2 14-1273); assay: cell-based or functional assay
[2] = biological target: SARS-CoV-2突变株501Y.V2 (B.1.351) S蛋白 (spike protein of 501Y.V2, on live virus) (SARS-CoV-2 501Y.V2 (B.1.351), UniProt P0DTC2 14-1273); assay: cell-based or functional assay

B1: 单克隆抗体35B5 (monoclonal antibody 35B5) (antibody, V domains shown, not shown: large carriers)
VH: QVQLLESGGGLVQPGRSLRLSCAASGFTFDDYAMHWVRQAPGKGLEWVSGVSWNSGTIGYADSVKGRFTISRDNAKNSLYLHMRSLRAEDTALYYCAKAVEMVRGLMGLGADPEYGMDVWGQGTTVTVSS
VL: not shown
IC50, live SARS-CoV-2 neutralisation on Vero E6 cells (plaque / focus assay) [1]: 0.00728 µg/mL
IC50, live SARS-CoV-2 neutralisation on Vero E6 cells (plaque / focus assay) [2]: 0.013 µg/mL
